# According to patent US20250179176A1, “ANTI-TIGIT ANTIBODIES AND USES OF THE SAME” (ARCUS BIOSCIENCES, INC., priority 2022, published 2025):
# Experiment: Clinical safety of domvanalimab, 99 participants (AB154CSP0001 and ARC-7): TEAEs, related AEs, SAEs
# Assay type: in vivo, human
# Conditions: for Any TEAEs / TEAE Diarrhoea / TEAE Fatigue / TEAE Nausea / TEAE Pruritus: Table 15
molecule,measurement,setting,value
"domvanalimab: anti-TIGIT antibody with engineered IgG1 Fc, reduced FcγR binding; heavy chain SEQ ID NO: 12, light chain SEQ ID NO: 13 (antibody) heavy: EVQLVESGGGLVQPGGSLRLSCAASGFTFSNFGMHWVRQAPGKGLEWVAFISSGSSSIYYADTVKGRFTISRDNAKNSLYLQMNSLRAEDTAVYYCARMRLDYYAMDYWGQGTMVTVSSASTKGPSVFPLAPSSKSTSGGTAALGCLVKDYFPEPVTVSWNSGALTSGVHTFPAVLQSSGLYSLSSVVTVPSSSLGTQTYICNVNHKPSNTKVDKKVEPKSCDKTHTCPPCPAPEAAGGPSVFLFPPKPKDTLMISRTPEVTCWVDVSHEDPEVKFNWYVDGVEVHNAKTKPREEQYNSTYRWSVLTVLHQDWLNGKEYKCKVSNKALPAPIEKTISKAKGQPREPQVYTLPPSRDELTKNQVSLTCLVKGFYPSDIAVEWESNGQPENNYKTTPPVLDSDGSFFLYSKLTVDKSRWQQGNVFSCSVMHEALHNHYTQKSLSLSPGK light: DIQMTQSPSSLSASVGDRVTITCRASKSISKYLAWYQQKPGKAPKLLIYSGSTLQSGVPSRFSGSGSGTDFTLTISSLQPEDFATYYCQQHNEYPWTFGGGTKVEIKRTVAAPSVFIFPPSDEQLKSGTASWCLLNNFYPREAKVQWKVDNALQSGNSQESVTEQDSKDSTYSLSSTLTLSKADYEKHKVYACEVTHQGLSSPVTKSFNRGEC","SAE small bowel obstruction, frequency",99 participants,4.0%
same,Domvanalimab-related AE: Abdominal distension,AB154CSP0001 (N = 62),1 ( 1.6%)
same,Domvanalimab-related AE: Abdominal pain,AB154CSP0001 (N = 62),1 ( 1.6%)
same,Domvanalimab-related AE: Anaemia,AB154CSP0001 (N = 62),1 ( 1.6%)
same,Domvanalimab-related AE: Any AEs,AB154CSP0001 (N = 62),32 (51.6%)
same,Domvanalimab-related AE: Arthralgia,AB154CSP0001 (N = 62),1 (1.6%)
same,Domvanalimab-related AE: Arthritis,AB154CSP0001 (N = 62),1 ( 1.6%)
same,Domvanalimab-related AE: Aspartate aminotransferase increased,AB154CSP0001 (N = 62),1 ( 1.6%)
same,Domvanalimab-related AE: Back pain,AB154CSP0001 (N = 62),1 ( 1.6%)
same,Domvanalimab-related AE: Constipation,AB154CSP0001 (N = 62),1 ( 1.6%)
same,Domvanalimab-related AE: Decreased appetite,AB154CSP0001 (N = 62),1 (1.6%)
same,Domvanalimab-related AE: Diarrhoea,AB154CSP0001 (N = 62),3 (4.8%)
same,Domvanalimab-related AE: Fatigue,AB154CSP0001 (N = 62),4 (6.5%)
same,Domvanalimab-related AE: Flank pain,AB154CSP0001 (N = 62),1 ( 1.6%)
same,Domvanalimab-related AE: Headache,AB154CSP0001 (N = 62),3 (4.8%)
same,Domvanalimab-related AE: Hot flush,AB154CSP0001 (N = 62),1 ( 1.6%)
same,Domvanalimab-related AE: Hyperglycaemia,AB154CSP0001 (N = 62),1 ( 1.6%)
same,Domvanalimab-related AE: Hyperkalaemia,AB154CSP0001 (N = 62),1 ( 1.6%)
same,Domvanalimab-related AE: Hyperthyroidism,AB154CSP0001 (N = 62),2 (3.2%)
same,Domvanalimab-related AE: Hypokalaemia,AB154CSP0001 (N = 62),1 ( 1.6%)
same,Domvanalimab-related AE: Hypothyroidism,AB154CSP0001 (N = 62),4 (6.5%)
same,Domvanalimab-related AE: Immune-mediated hepatitis,AB154CSP0001 (N = 62),2 ( 3.2%)
same,Domvanalimab-related AE: Influenza like illness,AB154CSP0001 (N = 62),1 ( 1.6%)
same,Domvanalimab-related AE: Infusion related reaction,AB154CSP0001 (N = 62),1 ( 1.6%)
same,Domvanalimab-related AE: Liver function test increased,AB154CSP0001 (N = 62),1 ( 1.6%)
same,Domvanalimab-related AE: Lymphopenia,AB154CSP0001 (N = 62),1 ( 1.6%)
same,Domvanalimab-related AE: Muscle spasms,AB154CSP0001 (N = 62),1 ( 1.6%)
same,Domvanalimab-related AE: Musculoskeletal chest pain,AB154CSP0001 (N = 62),1 ( 1.6%)
same,Domvanalimab-related AE: Nail disorder,AB154CSP0001 (N = 62),1 ( 1.6%)
same,Domvanalimab-related AE: Nasal mucosal disorder,AB154CSP0001 (N = 62),1 ( 1.6%)
same,Domvanalimab-related AE: Nausea,AB154CSP0001 (N = 62),5 (8.1%)
same,Domvanalimab-related AE: Oral pain,AB154CSP0001 (N = 62),1 ( 1.6%)
same,Domvanalimab-related AE: Pain,AB154CSP0001 (N = 62),2 ( 3.2%)
same,Domvanalimab-related AE: Peripheral sensory neuropathy,AB154CSP0001 (N = 62),1 ( 1.6%)
same,Domvanalimab-related AE: Pneumonitis,AB154CSP0001 (N = 62),1 ( 1.6%)
same,Domvanalimab-related AE: Pruritus,AB154CSP0001 (N = 62),5 (8.1%)
same,Domvanalimab-related AE: Pruritus generalised,AB154CSP0001 (N = 62),1 ( 1.6%)
same,Domvanalimab-related AE: Pulmonary pain,AB154CSP0001 (N = 62),1 ( 1.6%)
same,Domvanalimab-related AE: Pyrexia,AB154CSP0001 (N = 62),3 (4.8%)
same,Domvanalimab-related AE: Rash,AB154CSP0001 (N = 62),1 (1.6%)
same,Domvanalimab-related AE: Rash maculo-papular,AB154CSP0001 (N = 62),3 (4.8%)
same,Domvanalimab-related AE: Rash pruritic,AB154CSP0001 (N = 62),1 ( 1.6%)
same,Domvanalimab-related AE: Transaminases increased,AB154CSP0001 (N = 62),1 ( 1.6%)
same,Domvanalimab-related AE: Tumour flare,AB154CSP0001 (N = 62),3 (4.8%)
same,Domvanalimab-related AE: Tumour pain,AB154CSP0001 (N = 62),1 ( 1.6%)
same,Domvanalimab-related AE: Adrenal insufficiency,ARC-7 (N = 37),1 ( 2.7%)
same,Domvanalimab-related AE: Any AEs,ARC-7 (N = 37),18 (48.6%)
same,Domvanalimab-related AE: Arthralgia,ARC-7 (N = 37),3 (8.1%)
same,Domvanalimab-related AE: Asthenia,ARC-7 (N = 37),1 ( 2.7%)
same,Domvanalimab-related AE: Back pain,ARC-7 (N = 37),1 ( 2.7%)
same,Domvanalimab-related AE: Constipation,ARC-7 (N = 37),1 ( 2.7%)
same,Domvanalimab-related AE: Cough,ARC-7 (N = 37),1 ( 2.7%)
same,Domvanalimab-related AE: Decreased appetite,ARC-7 (N = 37),2 (5.4%)
same,Domvanalimab-related AE: Delirium,ARC-7 (N = 37),1 ( 2.7%)
same,Domvanalimab-related AE: Diarrhoea,ARC-7 (N = 37),2 (5.4%)
same,Domvanalimab-related AE: Dry eye,ARC-7 (N = 37),1 ( 2.7%)
same,Domvanalimab-related AE: Dry mouth,ARC-7 (N = 37),1 ( 2.7%)
same,Domvanalimab-related AE: Dyspnoea exertional,ARC-7 (N = 37),1 ( 2.7%)
same,Domvanalimab-related AE: Fatigue,ARC-7 (N = 37),2 (5.4%)
same,Domvanalimab-related AE: Generalised oedema,ARC-7 (N = 37),1 ( 2.7%)
same,Domvanalimab-related AE: Headache,ARC-7 (N = 37),1 (2.7%)
same,Domvanalimab-related AE: Hyperthyroidism,ARC-7 (N = 37),1 (2.7%)
same,Domvanalimab-related AE: Infusion related reaction,ARC-7 (N = 37),1 ( 2.7%)
same,Domvanalimab-related AE: Infusion site pain,ARC-7 (N = 37),1 ( 2.7%)
same,Domvanalimab-related AE: Malaise,ARC-7 (N = 37),2 ( 5.4%)
same,Domvanalimab-related AE: Myalgia,ARC-7 (N = 37),1 ( 2.7%)
same,Domvanalimab-related AE: Nausea,ARC-7 (N = 37),1 (2.7%)
same,Domvanalimab-related AE: Pancreatitis,ARC-7 (N = 37),1 ( 2.7%)
same,Domvanalimab-related AE: Paraesthesia,ARC-7 (N = 37),1 ( 2.7%)
same,Domvanalimab-related AE: Pneumonitis,ARC-7 (N = 37),1 ( 2.7%)
same,Domvanalimab-related AE: Pruritus,ARC-7 (N = 37),4 (10.8%)
same,Domvanalimab-related AE: Pyrexia,ARC-7 (N = 37),2 (5.4%)
same,Domvanalimab-related AE: Rash,ARC-7 (N = 37),3 (8.1%)
same,Domvanalimab-related AE: Rash maculo-papular,ARC-7 (N = 37),3 (8.1%)
same,Domvanalimab-related AE: Rhinorrhoea,ARC-7 (N = 37),1 ( 2.7%)
same,Domvanalimab-related AE: Vomiting,ARC-7 (N = 37),1 ( 2.7%)
same,Any TEAEs,ARC-7 (n = 37),31 (83.8%)
same,TEAE Diarrhoea,ARC-7 (n = 37),5 (13.5%)
same,TEAE Fatigue,ARC-7 (n = 37),3 (8.1%)
same,TEAE Nausea,ARC-7 (n = 37),4 (10.8%)
same,TEAE Pruritus,ARC-7 (n = 37),4 (10.8%)
same,Any TEAEs,Total (n = 99),84 (84.8%)
same,TEAE Diarrhoea,Total (n = 99),10 (10.1%)
same,TEAE Fatigue,Total (n = 99),12 (12.1%)
same,TEAE Nausea,Total (n = 99),13 (13.1%)
same,TEAE Pruritus,Total (n = 99),10 (10.1%)
same,Any TEAEs,n = 62,53 (85.5%)
same,TEAE Diarrhoea,n = 62,5 (8.1%)
same,TEAE Fatigue,n = 62,9 (14.5%)
same,TEAE Nausea,n = 62,9 (14.5%)
same,TEAE Pruritus,n = 62,6 (9.7%)
same,Domvanalimab-related AE: Abdominal distension,Total (N = 99),1 ( 1.0%)
same,Domvanalimab-related AE: Abdominal pain,Total (N = 99),1 ( 1.0%)
same,Domvanalimab-related AE: Adrenal insufficiency,Total (N = 99),1 ( 1.0%)
same,Domvanalimab-related AE: Anaemia,Total (N = 99),1 ( 1.0%)
same,Domvanalimab-related AE: Any AEs,Total (N = 99),50 (50.5%)
same,Domvanalimab-related AE: Arthralgia,Total (N = 99),4 (4.0%)
same,Domvanalimab-related AE: Arthritis,Total (N = 99),1 ( 1.0%)
same,Domvanalimab-related AE: Aspartate aminotransferase increased,Total (N = 99),1 ( 1.0%)
same,Domvanalimab-related AE: Asthenia,Total (N = 99),1 ( 1.0%)
same,Domvanalimab-related AE: Back pain,Total (N = 99),2 ( 2.0%)
same,Domvanalimab-related AE: Constipation,Total (N = 99),2 ( 2.0%)
same,Domvanalimab-related AE: Cough,Total (N = 99),1 ( 1.0%)
same,Domvanalimab-related AE: Decreased appetite,Total (N = 99),3 (3.0%)
same,Domvanalimab-related AE: Delirium,Total (N = 99),1 ( 1.0%)
same,Domvanalimab-related AE: Diarrhoea,Total (N = 99),5 (5.1%)
same,Domvanalimab-related AE: Dry eye,Total (N = 99),1 ( 1.0%)
same,Domvanalimab-related AE: Dry mouth,Total (N = 99),1 ( 1.0%)
same,Domvanalimab-related AE: Dyspnoea exertional,Total (N = 99),1 ( 1.0%)
same,Domvanalimab-related AE: Fatigue,Total (N = 99),6 (6.1%)
same,Domvanalimab-related AE: Flank pain,Total (N = 99),1 ( 1.0%)
same,Domvanalimab-related AE: Generalised oedema,Total (N = 99),1 ( 1.0%)
same,Domvanalimab-related AE: Headache,Total (N = 99),4 (4.0%)
same,Domvanalimab-related AE: Hot flush,Total (N = 99),1 ( 1.0%)
same,Domvanalimab-related AE: Hyperglycaemia,Total (N = 99),1 ( 1.0%)
same,Domvanalimab-related AE: Hyperkalaemia,Total (N = 99),1 ( 1.0%)
same,Domvanalimab-related AE: Hyperthyroidism,Total (N = 99),3 (3.0%)
same,Domvanalimab-related AE: Hypokalaemia,Total (N = 99),1 ( 1.0%)
same,Domvanalimab-related AE: Hypothyroidism,Total (N = 99),4 (4.0%)
same,Domvanalimab-related AE: Immune-mediated hepatitis,Total (N = 99),2 ( 2.0%)
same,Domvanalimab-related AE: Influenza like illness,Total (N = 99),1 ( 1.0%)
same,Domvanalimab-related AE: Infusion related reaction,Total (N = 99),2 ( 2.0%)
same,Domvanalimab-related AE: Infusion site pain,Total (N = 99),1 ( 1.0%)
same,Domvanalimab-related AE: Liver function test increased,Total (N = 99),1 ( 1.0%)
same,Domvanalimab-related AE: Lymphopenia,Total (N = 99),1 ( 1.0%)
same,Domvanalimab-related AE: Malaise,Total (N = 99),2 ( 2.0%)
same,Domvanalimab-related AE: Muscle spasms,Total (N = 99),1 ( 1.0%)
same,Domvanalimab-related AE: Musculoskeletal chest pain,Total (N = 99),1 ( 1.0%)
same,Domvanalimab-related AE: Myalgia,Total (N = 99),1 ( 1.0%)
same,Domvanalimab-related AE: Nail disorder,Total (N = 99),1 ( 1.0%)
same,Domvanalimab-related AE: Nasal mucosal disorder,Total (N = 99),1 ( 1.0%)
same,Domvanalimab-related AE: Nausea,Total (N = 99),6 (6.1%)
same,Domvanalimab-related AE: Oral pain,Total (N = 99),1 ( 1.0%)
same,Domvanalimab-related AE: Pain,Total (N = 99),2 ( 2.0%)
same,Domvanalimab-related AE: Pancreatitis,Total (N = 99),1 ( 1.0%)
same,Domvanalimab-related AE: Paraesthesia,Total (N = 99),1 ( 1.0%)
same,Domvanalimab-related AE: Peripheral sensory neuropathy,Total (N = 99),1 ( 1.0%)
same,Domvanalimab-related AE: Pneumonitis,Total (N = 99),2 ( 2.0%)
same,Domvanalimab-related AE: Pruritus,Total (N = 99),9 (9.1%)
same,Domvanalimab-related AE: Pruritus generalised,Total (N = 99),1 ( 1.0%)
same,Domvanalimab-related AE: Pulmonary pain,Total (N = 99),1 ( 1.0%)
same,Domvanalimab-related AE: Pyrexia,Total (N = 99),5 (5.1%)
same,Domvanalimab-related AE: Rash,Total (N = 99),4 (4.0%)
same,Domvanalimab-related AE: Rash maculo-papular,Total (N = 99),6 (6.1%)
same,Domvanalimab-related AE: Rash pruritic,Total (N = 99),1 ( 1.0%)
same,Domvanalimab-related AE: Rhinorrhoea,Total (N = 99),1 ( 1.0%)
same,Domvanalimab-related AE: Transaminases increased,Total (N = 99),1 ( 1.0%)
same,Domvanalimab-related AE: Tumour flare,Total (N = 99),3 (3.0%)
same,Domvanalimab-related AE: Tumour pain,Total (N = 99),1 ( 1.0%)
same,Domvanalimab-related AE: Vomiting,Total (N = 99),1 ( 1.0%)
same,tolerability in cancer patients,clinical data to date,well tolerated
